The results in this text go back to patent publication US20220220224A1 (Hoffmann-La Roche, published 2022).

Experiment [1] addresses T1, recombinant biotinylated monomeric Fc fusion of murine Folate Receptor 1 (mu FolR1 ECD-AcTev-Fcknob-Avitag … (murine, UniProt P0DOX5 223-449 = IgG part, biotin on the C-terminal Avi tag)).
T1 construct: also called muFolR1-Fc; murine FolR1
As to the kind of experiment: SPR Biacore, single injection on immobilized antigen-Fc. As to the method: (§1) Binding of FolR1 binders as IgG or in the T-cell bispecific format to different recombinant folate receptors (human FolR1, 2 and 3, murine FolR1 and cynomolgus FolR1; all as Fc fusions) was assessed by surface plasmon resonance (SPR). All SPR experiments were performed on a Biacore T200 at 25° C. with HBS-EP as running buffer (0.01 M HEPES pH 7.4, 0.15 M NaCl, 3 mM EDTA, 0.005% Surfactant P20, Biacore, Freiburg/Germany).
(§2) First the anti-FolR1 IgGs were analyzed by single injections (Table 1) to characterize their crossreactivity (to human, murine and cyno FolR1) and specificity (to human FolR1, human FolR2, human FolR3). Recombinant biotinylated monomeric Fc fusions of human, cynomolgus and murine Folate Receptor 1 (FolR1-Fc) or human Folate Receptor 2 and 3 (FolR2-Fc, FolR3-Fc) were directly coupled on a SA chip using the standard coupling instruction (Biacore, Freiburg/Germany). The immobilization level was about 300-400 RU. The IgGs were injected for 60 seconds at a concentration of 500 nM.
On the technique in general: Surface plasmon resonance follows binding to a sensor surface in real time, without labels.

Experiment [2] addresses T2, recombinant biotinylated monomeric Fc fusion of human Folate Receptor 2 (hu FolR2 ECD-AcTev-Fcknob-Avi tag … (human, UniProt P0DOX5 223-449 = IgG part, biotin on the C-terminal Avi tag)).
T2 construct: also called FolR2-Fc
The experiment is described as follows: SPR ProteOn, Fab analyte on immobilized antigen-Fc. As to the method: (§3) Immobilization of antigens (ligand): Recombinant antigens were diluted with PBST (10 mM phosphate, 150 mM sodium chloride pH 7.4, 0.005% Tween 20) to 10 μg/ml, then injected at 30 μl/minute in vertical orientation. Injection of analytes: For ‘one-shot kinetics’ measurements, injection direction was changed to horizontal orientation, two-fold dilution series of purified Fab (varying concentration ranges) were injected simultaneously along separate channels 1-5, with association times of 200 s, and dissociation times of 600 s. Buffer (PBST) was injected along the sixth channel to provide an “in-line” blank for referencing. Association rate constants (kₒₙ) and dissociation rate constants (koff) were calculated using a simple one-to-one Langmuir binding model in ProteOn Manager v3.1 software by simultaneously fitting the association and dissociation sensorgrams. The equilibrium dissociation constant (KD) was calculated as the ratio koff/kₒₙ.

Experiment [3] concerns the target T3, recombinant biotinylated monomeric Fc fusion of human Folate Receptor 3 (hu FolR3 ECD-AcTev-Fcknob-Avi tag … (human, UniProt P0DOX5 223-449 = IgG part, biotin on the C-terminal Avi tag)).
T3 construct: also called FolR3-Fc
As to the kind of experiment: SPR ProteOn, Fab analyte on immobilized antigen-Fc. As for the experimental part:
as §3

For experiment [4], the target named is T4, recombinant biotinylated monomeric Fc fusion of cynomolgus Folate Receptor 1 (cy FolR1 ECD-AcTev-Fcknob-Avi … (cynomolgus, UniProt P0DOX5 223-449 = IgG part, biotin on the C-terminal Avi tag)).
T4 construct: also called cyFolR1-Fc; cyno FolR1
As to the kind of experiment: SPR ProteOn, Fab analyte on immobilized antigen-Fc. As to the method:
as §3

Experiment [5] deals with T5, recombinant biotinylated monomeric Fc fusion of human Folate Receptor 1 (huFolR1 ECD-AcTev-Fcknob-Avi tag … (human, UniProt P0DOX5 223-449 = IgG part, biotin on the C-terminal Avi tag)).
T5 construct: also called huFolR1-Fc; human FolR1-Fc
The experiment is described as follows: SPR ProteOn, Fab analyte on immobilized antigen-Fc. As for the experimental part:
as §3

For experiment [6], the target named is T2, recombinant biotinylated monomeric Fc …. As to the kind of experiment: SPR Biacore, single injection on immobilized antigen-Fc. As to the method: as §1, §2
Experiment [7] has as its target T3, recombinant biotinylated monomeric Fc …. Described as above. As to the method: as §1, §2

B1: 5D9 IgG (antibody, V domains shown)
VH: QVQLVQSGAEVKKPGASVKVSCKASGYTFTSYYMHWVRQAPGQGLEWMGIINPSGGSTSYAQKFQGRVTMTRDTSTSTVYMELSSLRSEDTAVYYCARSYIDMDYWGQGTLVTVSS
VL: EIVLTQSPGTLSLSPGERATLSCRASQSVSSSYLAWYQQKPGQAPRLLIYGASSRATGIPDRFSGSGSGTDFTLTISRLEPEDFAVYYCQQDNWSPTFGQGTKVEIK
notes: human IgG1
With B1, in experiment [1], the binding result is “no binding (tested: 500 nM)”.

B2: 6B6 IgG (antibody, V domains shown)
VH: QVQLVQSGAEVKKPGASVKVSCKASGYTFTSYYMHWVRQAPGQGLEWMGIINPSGGSTSYAQKFQGRVTMTRDTSTSTVYMELSSLRSEDTAVYYCARSYVDMDYWGQGTLVTVSS
VL: EIVLTQSPGTLSLSPGERATLSCRASQSVSSSYLAWYQQKPGQAPRLLIYGASSRATGIPDRFSGSGSGTDFTLTISRLEPEDFAVYYCQQDIWSPTFGQGTKVEIK
notes: human IgG1
As for B2, the binding result in experiment [1] was “no binding (tested: 500 nM)”.

B3: 15A1 Fab (Fab, V domains shown)
VH: QVQLVQSGAEVKKPGASVKVSCKASGYTFTSYYMHWVRQAPGQGLEWMGIINPSGGSTSYAQKFQGRVTMTRDTSTSTVYMELSSLRSEDTAVYYCARNYYIGVVTFDYWGQGTLVTVSS
VL: QAVVTQEPSLTVSPGGTVTLTCGSSTGAVTTSNYANWVQEKPGQAFRGLIGGTNKRAPGTPARFSGSLLGGKAALTLSGAQPEDEAEYYCALWYSNLWVFGGGTKLTVL
notes: bacterial Fab
In general, Kd refers to the constant that tells how readily two partners part at equilibrium. For the molecule B3, the binding result in experiment [2] and in experiment [3] was “no binding” each time. For the same molecule, the Kd turned out to be 17.3 nM in experiment [4] and 30.9 nM in experiment [5].

B4: 18D3 IgG (antibody, V domains shown)
VH: QVQLVQSGAEVKKPGASVKVSCKASGYTFTSYYMHWVRQAPGQGLEWMGIINPSGGSTSYAQKFQGRVTMTRDTSTSTVYMELSSLRSEDTAVYYCARNYYTGGSSAFDYWGQGTLVTVS
VL: QAVVTQEPSLTVSPGGTVTLTCGSSTGAVTTSNYANWVQEKPGQAFRGLIGGTNKRAPGTPARFSGSLLGGKAALTLSGAQPEDEAEYYCALWYSNLWVFGGGTKLTVL
notes: human IgG1
Turning to B4, the binding result in experiment [6] and in experiment [7] was “no binding (tested: 500 nM)” each time.

B5: 16A3 Fab (Fab, V domains shown)
VH: QVQLVQSGAEVKKPGASVKVSCKASGYTFTSYYMHWVRQAPGQGLEWMGIINPSGGSTSYAQKFQGRVTMTRDTSTSTVYMELSSLRSEDTAVYYCARNYYAGVTPFDYWGQGTLVTVSS
VL: QAVVTQEPSLTVSPGGTVTLTCGSSTGAVTTSNYANWVQEKPGQAFRGLIGGTNKRAPGTPARFSGSLLGGKAALTLSGAQPEDEAEYYCALWYSNLWVFGGGTKLTVL
notes: bacterial Fab
In the case of B5, the binding result in experiment [2] and in experiment [3] was “no binding” in each case. Besides, the dissociation constant Kd amounted to 18 nM in experiment [4] and 21.7 nM in experiment [5].

B6: 20G6 Fab (Fab, V domains shown)
VH: QVQLVQSGAEVKKPGASVKVSCKASGYTFTSYYMHWVRQAPGQGLEWMGIINPSGGSTSYAQKFQGRVTMTRDTSTSTVYMELSSLRSEDTAVYYCARGEWIRYYHFDYWGQGTLVTVSS
VL: QAVVTQEPSLTVSPGGTVTLTCGSSTGAVTTSNYANWVQEKPGQAFRGLIGGTNKRAPGTPARFSGSLLGGKAALTLSGAQPEDEAEYYCALWYSNLWVFGGGTKLTVL
notes: bacterial Fab
In the case of B6, the binding result in experiment [2], in experiment [3], in experiment [4] and in experiment [5] was “no binding” throughout.

B7: 16F12 IgG (antibody, V domains shown)
VH: QVQLVQSGAEVKKPGASVKVSCKASGYTFTSYYMHWVRQAPGQGLEWMGIINPSGGSTSYAQKFQGRVTMTRDTSTSTVYMELSSLRSEDTAVYYCARNFTVLRVPFDYWGQGTLVTVSS
VL: QAVVTQEPSLTVSPGGTVTLTCGSSTGAVTTSNYANWVQEKPGQAFRGLIGGTNKRAPGTPARFSGSLLGGKAALTLSGAQPEDEAEYYCALWYSNLWVFGGGTKLTVL
notes: human IgG1
As for B7, the binding result in experiment [1], in experiment [6] and in experiment [7] was “no binding (tested: 500 nM)” throughout.

B8: 19H3 Fab (Fab, V domains shown)
VH: QVQLVQSGAEVKKPGASVKVSCKASGYTFTSYYMHWVRQAPGQGLEWMGIINPSGGSTSYAQKFQGRVTMTRDTSTSTVYMELSSLRSEDTAVYYCARTGWSRWGYMDYWGQGTLVTVSS
VL: QAVVTQEPSLTVSPGGTVTLTCGSSTGAVTTSNYANWVQEKPGQAFRGLIGGTNKRAPGTPARFSGSLLGGKAALTLSGAQPEDEAEYYCALWYSNLWVFGGGTKLTVL
notes: bacterial Fab
With B8, the binding result in experiment [2], in experiment [3], in experiment [4] and in experiment [5] was “no binding” each time.

B9: 19E5 Fab (Fab, V domains shown)
VH: QVQLVQSGAEVKKPGASVKVSCKASGYTFTSYYMHWVRQAPGQGLEWMGIINPSGGSTSYAQKFQGRVTMTRDTSTSTVYMELSSLRSEDTAVYYCARGEWRRYTSFDYWGQGTLVTVSS
VL: QAVVTQEPSLTVSPGGTVTLTCGSSTGAVTTSNYANWVQEKPGQAFRGLIGGTNKRAPGTPARFSGSLLGGKAALTLSGAQPEDEAEYYCALWYSNLWVFGGGTKLTVL
notes: bacterial Fab
B9: the equilibrium dissociation constant (Kd) in experiment [4] was 276 nM.

B10: 15B6 IgG (antibody, V domains shown)
VH: QVQLVQSGAEVKKPGASVKVSCKASGYTFTSYYMHWVRQAPGQGLEWMGIINPSGGSTSYAQKFQGRVTMTRDTSTSTVYMELSSLRSEDTAVYYCARNYYIGIVPFDYWGQGTLVTVSS
VL: QAVVTQEPSLTVSPGGTVTLTCGSSTGAVTTSNYANWVQEKPGQAFRGLIGGTNKRAPGTPARFSGSLLGGKAALTLSGAQPEDEAEYYCALWYSNLWVFGGGTKLTVL
notes: human IgG1
In the case of B10, the binding result in experiment [1], in experiment [6] and in experiment [7] was “no binding (tested: 500 nM)” each time.

B11: 21D1 IgG (antibody, V domains shown)
VH: QVQLVQSGAEVKKPGASVKVSCKASGYTFTSYYMHWVRQAPGQGLEWMGIINPSGGSTSYAQKFQGRVTMTRDTSTSTVYMELSSLRSEDTAVYYCARNYYVGVSPFDYWGQGTLVTVSS
VL: QAVVTQEPSLTVSPGGTVTLTCGSSTGAVTTSNYANWVQEKPGQAFRGLIGGTNKRAPGTPARFSGSLLGGKAALTLSGAQPEDEAEYYCALWYSNLWVFGGGTKLTVL
notes: human IgG1
For the molecule B11, the binding result in experiment [6] and in experiment [7] was “no binding (tested: 500 nM)” throughout.

B12: 15H7 Fab (Fab, V domains shown)
VH: QVQLVQSGAEVKKPGASVKVSCKASGYTFTSYYMHWVRQAPGQGLEWMGIINPSGGSTSYAQKFQGRVTMTRDTSTSTVYMELSSLRSEDTAVYYCARNYYLFSTSFDYWGQGTLVTVSS
VL: QAVVTQEPSLTVSPGGTVTLTCGSSTGAVTTSNYANWVQEKPGQAFRGLIGGTNKRAPGTPARFSGSLLGGKAALTLSGAQPEDEAEYYCALWYSNLWVFGGGTKLTVL
notes: bacterial Fab
For the molecule B12, the binding result in experiment [2] and in experiment [3] was “no binding” each time. For the same molecule, the Kd in experiment [4] was found to be 72.5 nM.

B13: 21G8 IgG (antibody, V domains shown)
VH: not shown
VL: QAVVTQEPSLTVSPGGTVTLTCGSSTGAVTTSNYANWVQEKPGQAFRGLIGGTNKRAPGTPARFSGSLLGGKAALTLSGAQPEDEAEYYCALWYSNLWVFGGGTKLTVL
notes: human IgG1
As for B13, the binding result in experiment [1] is recorded as “no binding (tested: 500 nM)”.
